The data set concerns the molecule itself. As to the kind of experiment: SEC; gel filtration, Superdex 200 10/300 GL, 25 mM Tris-Cl pH 8.0, 150 mM NaCl, 0.5 mL/min.

B1: Mesaconyl-CoA C1-C4 CoA transferase (MCT) from Roseiflexus castenholzii (enzyme)
chain: MNGILSGMRIVEGSAFVAAPLGGMTLAQLGADVIRFDPIGGGLDYKRWPVTLDGKHSLFWAGLNKGKRSIAIDIRHPRGQELLTQLICAPGDEAGLFITNFPARGWLSYEALKAHRADLIMVNLLGRRDGGSEVDYTVNPQLGLPFMTGPFTSPEVVNHVLPAWDIVTGQMIALGLLAAERHRRRTGEGQLVKLALKDVGLAMIGHLGMIAEVMINDADRPKQGNYLYGAFGRDFETLDGKRVMVVGLTDLQWKALGKATGLTDAFNALGARLGLDMNDEGNRFRARREIAALLEPWFHARTFAEVRRVFEEHRVTWGPYRTVREAIAQDPDCSTENPMFTMVEQPGIGTYLMPASPLDFSRMPRLPAQRAPRLGEHTDEILLEVLGLSDGEVGKLHDEGIVAGPEEE
Turning to B1, the “stoichiometry N” value is 2.

The record behind these values is PMC9196870, “Crystal Structure of an Intramolecular Mesaconyl-Coenzyme A Transferase From the 3-Hydroxypropionic Acid Cycle of Roseiflexus castenholzii” (Frontiers in Microbiology, 2022).
